Source: the DeepSol protein solubility set

Assay: soluble on expression in E. coli; label from the status in PepcDB or PDB records
For “MGSDKIHHHHHHMNFEKIEQAYDLLLENVQTIQNQLGTNIYDAMIEQNAAYVANQHETDLVVNNNQTLKQLDLTKEEWRRAYQFLLIKANQTEPMQYNHQFTPDSIGFILSFLVDQLVPTQKVTVLEIGSGTGNLAQTILNASQKDLDYLGIEVDDLLIDLSASIADVMQADISFAQGDAVRPQILKESQVILGDLPIGYYPDDQIASRYQVASPNEHTYAHHLLMEQSLKYLEKDGFAILLAPNDLLTSPQSDLLKGWLQEQANIVAMIALPPNLFGKAAMAKSIFVLQKKAARSLTPFVYPLQSLQEPEAIQKFM”, the “soluble on expression in E. coli” value was “not soluble”.
With “MGSDKIHHHHHHMNFEVLVKHISTIQNTLQAQAAHAVNLALTSRNWLMGCYIVEFEQNGEDRAAYGEQLLKKLEQRLKTKGLNERRFREFRRLYLVYPQLKESVTQYIASQIQIRQSLTAEFTEPIRRLVTAESENGVWKLSTEHPQTETWMIPADRLFNRLSSTHLNTISGIENPIKRAFYEMETIRGCWSVKELERQIASLYYERSGLSKNKEALSALVQQQVTLLQPKDVINTPVTLEFLGLNERALVTENDLEQSILDNLQHFLLEMGHGFCFEARQKRILIDEDYFFADLVFYHRILKCHIIVELKIDKFRHEYASQLNMYLNYFKAEVMQPDDNPPIGILLCTEKGDTLVKYATAGLDPNIFVQKYMIELPSEEEIKRFILGVNF” the “soluble on expression in E. coli” value was “not soluble”.
For “MGSDKIHHHHHHMNGKLQSSDVKNETPYNIPLLINENVISSGISLISLWHTYADEHYRVIWPRDKKKPLIANSWVAVYTVQGCGKILLKNGEQITLHSNCIIFLKPMDIHSYHCEGLVWEQYWMEFTPTSMMDIPVGQQSVIYNGEIYNQELTEVAELITSPEAIKNNLAVAFLTKIIYQWICLMSADGKKDPQRRQIEKLIATLHASLQQRWSVADMAATIPCSEAWLRRLFLRYTGKTPKEYYLDARLDLALSLLKQQGNSVGEVADTLNFFDSFHFSKAFKHKFGYAPSAVLKNTDQHPTDASPHN”, the “soluble on expression in E. coli” value was “not soluble”.
In the case of “MGSDKIHHHHHHMNGQPLIQVSDFEGPLDLLLHLIKTNEMDIYDIRISTITSQYLTYLHQMQLVRLDVAGEYFVMAANLMAIKAKLLLPKPQSVVPVDEDEPADPREELVNQLLEYQRYKQAAQALKQRALERQQHFTRPAMAVPESVELTVAPGIKPVDLQTALVRLMQRATLAKPVTQSVHQEHFTIKRQMTTILQRLKGTTAPVAFEQLLVTHPVMEEVVTTFLAVLELARQRQVQLQQAGRLAPLQVNFLQMEGRFSTDVTSSTD”, the “soluble on expression in E. coli” value is reported as “not soluble”.
In the case of “MGSDKIHHHHHHMNILVDLTQIPIQKVGVGVYAKETFKFPNEDANELFFLLQDDDNDLRSTFLKSKIILVKSKFFRFFFCRFLLEQFYIPFLCYKYKINILHSLHYSFPIFLFKVKRIVTIHDLTFFIHPSVHTFIKRYYFRLFIKLACRYADRLICVSESTKKDLERICGRRSVSIDVIPLSCSPKMQVGEQELELVKKKFGVVSQYMLFIGTLEPRKNILNLINAFYKFSQKNRDYSLVIIGKKGWFYESIFKLVEELHLERSVVFTGFVTTKEKFILLSGAHSFIYPSIYEGFGLPVLEAITYGIPTITSKLSSLPEVAGNAALYINPYDVQSISDAIESVNCDEETRRKLIKNSEKQRLKYSWKKTANLTYSLYNRCGSI”, the “soluble on expression in E. coli” value is reported as “not soluble”.
For “MGSDKIHHHHHHMNIQDLRYFHELVNLKSYTKTAEKFGVSQPTITAAVKRLENRFGGTFLIRDQPHKSIIITRLGVQFDEHVQSILNEINIVEEEIKQNQNASIPFGLPPIIGRNYFPKIVSQLFAKGLLHRLNVIENGSYDLYHLLLEGYINFSMLGLTKVNVEPGIKLEVVKSYPMCIVVSKTHPLATKKAISFKEIANENFIGLSSDYIHTKALDRMLKKSKINLNTIYRSPDVTVVKNIVAQNLGISYLTTLSITENDDVISIPLLDKDQPKFILAAATRENHIMTDAEEEFWEILTQISLRRQVLTSTLPS”, the “soluble on expression in E. coli” value was “not soluble”.
For “MGSDKIHHHHHHMNKNPEIQFRSPEEIKAYQESRLAEELLYLQNHSRFYQHLFQAYHIDIQQIKTIEDLQQIPVTTKTDLQLHNEDFICVSRDEIIDYVTTSGTLGDPVTFVLTSEDLDRLAYNEYLSFTTTGCSRQDILQLMTTIDRRFMAGLAYYMGARELGMGVARVGNGIPELQWDTIRRIHPTCGMVVPSFLIKLIEFAEKNHIDYHHCSMQKCVCIGEALRNPDFTLNTLGKRIHEKWDSLQLYSTYASTEMQSSFTECNEFHGGHLQPELIIVEFLDDNNQPVKEGEAGEVTITTLGVRGMPLLRFKTGDICYHYTEPCACGRNTIRLSSILGRKGQMIKYKGTTLYPPALFDILDNIPHIKNYIVEVYTNELGTDEILIRIGSENRSEAFAKEIKDLFRSKVRVAPSINFESAEYIAKIQMPPMSRKIVKFIDLR”, the “soluble on expression in E. coli” value was “not soluble”.
With “MGSDKIHHHHHHMNLFSPHLKRNELIKFAKELDFSKSQDLLINVHRNHAFEGVQSIIAPFLHFANLRAEFNFSSYDDSLSFDNFKEASLELLWLDLTRYKNNVQNFIEERLLELRKISQNPILVLSLGEFKTDKKILNCEIFNIEKLIKEYFDEEDILDLAKEELTGSKLNNKALIFLAQILGLSLIPALVKPALKALVLDLDNTLYQGILGEEGIDNLNLSPLHKTLQEKIKTFKKQGFLLALASKNEEKDAKKLFEIRKDFILQWDDFDARMINWEPKGENILKIAKKFNINTNAMLFIDDNIAELENTKITGVKTLLCDENILYKIKLFPNLLKLSNTKEDQIRAKDIAANALREELKSLSDEEYFQNLEISLNFSKNDLQNIPRISELLGKTNQFIANYTRLNQEKVAQHMQKELIVSVSMSDKLSDSGIIAIFVFSCKEGNLFIDDLCISCRALGRKLETRMFFKAFELALHFFDLKNNNARLYYQKGERNMPFLSFLEQISKEFEKNSALIPFQNLNFKGLIIHEN” the “soluble on expression in E. coli” value was “not soluble”.
In the case of “MGSDKIHHHHHHMNNQEKNMLGFNQDEYLTSAREIIAARQKAEQVADEIYQAGFSSLFFASVGGSLAPMMAINEFAKELTTLPVYVEQAAELIHKGNKRLNKDSVVITLSKSGDTKESVAIAEWCKAQGIRVVAITKNADSPLAQAATWHIPMRHKNGVEYEYMLLYWLFFRVLSRNNEFASYDRFASQLEILPANLLKAKQKFDPQADAIASRYHNSDYMMWVGGAEMWGEVYLFSMCILEEMQWKRTRPVSSAEFFHGALELLEKDVPLILVKGEGKCRALDERVERFASKITDNLVVIDPKAYALDGIDDEFRWIMAPCVVSTLLVDRLAAHFEKYTGHSLDIRRYYRQFDY”, the “soluble on expression in E. coli” value is reported as “soluble”.
With “MGSDKIHHHHHHMNRKLIQIDQLKNQLTQYRPLSESEVKRLREEFIIESSYNSNAIEGNTITLRETVLILKEGMTIAEKPLREHLDIIGFKDAFNYIYELVANNEPLSERTIKDIHSLVLMNNAEGRGVYRKIPVRILGAENEPTAPYLIAEEMQSLIEKYQQKLTALHPIEAISWLHLAFESIHPFIDGNGRTGRLLINFELLKHGYLPVDIKFTHRANYYQCFDDFHKNQQDISRLVELISRYELTELERYLAILEQRT” the “soluble on expression in E. coli” value was “not soluble”.
In the case of “MGSDKIHHHHHHMNRRDLLVGLGAATLVPKASWADAHNPAFLSAAQAPDGNYHLCGLDPRGDVVFSIPLPGRGHAAAAHPTRPEAVAFARRPGRFALILDCVTGQETARLLPPPNRHFYGHGTFSSDGDVLFTTENDLTTLEGRIGLWDAAHGYVRLGDVPSGGIGPHDIARLPGTETLVIANGGIATHPDSGRTPLNPATMRSNLAYMRTDGTLLERVELDVTLRQNSIRHLSIRDDGLVSAGMQWNGAEGEHPPLTLLHRIGAAPRLLAAPTQTHRQLDGYVGSISFDQAGAHVAVTSPRGGTVHIFDVNSGAFAGLITAEDICGLALSHRAGLIATTGQGITGFVAQDDLTQMRHSSWRWDNHIVAI”, the “soluble on expression in E. coli” value is reported as “not soluble”.
For “MGSDKIHHHHHHMNSINKNQPEKNHEDLKNKDSIDKIIELASDQTCFLCTTQGAKGNARPMAVQKVDKQGNIWFLSASDSNQNKEIQENSSVNLYFKGNQHSDFMHLYGEATVLRDETIIKELWNPVLKTWFTEGENDPRITIIKFTTKEGYYWDTKHGNFIAGIKMLIGAATGQTLDDSIEGSLQNQPVHNTHISHG”, the “soluble on expression in E. coli” value was “not soluble”.
In the case of “MGSDKIHHHHHHMNSTMQVLVIGGTGTLGRQIAKNAIDAGHKVRCMVRKPKAASFLQEWGCELTRGNLLNKEDIEYALDGIDAVIDAATSRPDDPRSVYETDWDGKLNLFNACEEKNVKRVVFLSLLAAEKYREIPLMDIKYCTEELLVSSSLDYTILQGVAFMQGAIGQFAIPILNNEPVWISGNPTDIAYMNTQDIARFAVAALDRPQTIKGRFPIVGPKAWSAKGLVDLCEKFSEKRARVLKVSPTIISIAQSVVSFFEPTLNVAERLSFSELSGSGGKLDAPMEDTYTAFGLNPADTTTMEGYIKEYYGVILKRLKDIGVDLDIEEKKKFPI”, the “soluble on expression in E. coli” value is reported as “not soluble”.
